The results in this text go back to US20110301073, “Novel DNA-binding proteins and uses thereof” (Sangamo BioSciences, Inc., published 2011).

One data set concerns the target T1, TALE13 +39 FokI (Xanthomonas axonopodis (engineered)).
T1 chain: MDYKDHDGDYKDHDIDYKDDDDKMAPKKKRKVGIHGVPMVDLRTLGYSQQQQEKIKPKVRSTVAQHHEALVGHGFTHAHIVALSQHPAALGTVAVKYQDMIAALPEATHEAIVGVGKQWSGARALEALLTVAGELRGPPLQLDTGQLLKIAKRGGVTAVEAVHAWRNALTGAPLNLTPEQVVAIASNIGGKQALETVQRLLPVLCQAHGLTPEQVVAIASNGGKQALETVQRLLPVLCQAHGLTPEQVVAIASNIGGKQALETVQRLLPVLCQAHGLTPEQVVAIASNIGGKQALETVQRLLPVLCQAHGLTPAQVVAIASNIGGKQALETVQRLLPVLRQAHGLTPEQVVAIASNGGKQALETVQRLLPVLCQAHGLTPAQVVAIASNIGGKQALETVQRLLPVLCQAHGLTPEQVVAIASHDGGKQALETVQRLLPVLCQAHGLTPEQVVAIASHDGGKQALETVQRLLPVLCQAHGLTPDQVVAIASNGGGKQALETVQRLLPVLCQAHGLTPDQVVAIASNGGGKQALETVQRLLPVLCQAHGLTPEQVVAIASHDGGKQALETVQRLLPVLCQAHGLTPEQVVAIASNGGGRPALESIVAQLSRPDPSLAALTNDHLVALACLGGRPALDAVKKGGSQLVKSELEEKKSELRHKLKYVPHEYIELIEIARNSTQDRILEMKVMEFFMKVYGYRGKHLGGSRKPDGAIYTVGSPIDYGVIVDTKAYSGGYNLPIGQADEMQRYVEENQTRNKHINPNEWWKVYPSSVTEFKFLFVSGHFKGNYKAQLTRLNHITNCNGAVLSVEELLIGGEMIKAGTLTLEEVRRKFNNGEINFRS
The data set is described as follows: cleavage_in_vitro; two inverted sites, 16 bp gap; NEB Buffer 2, 37 C. As to conditions: tags: FLAG, NLS, chain copies: 2. The method, then: (§1) TALE domain fusions were also constructed using Fold cleavage half domains. For these examples, wild type FokI half cleavage domains were used so that for nuclease activity, a homodimer must be formed from two of the fusions. For these fusions, the TALE13 DNA binding domain was fused to each FokI half domain by cloning the TALE DNA binding domain into a plasmid adjacent to FokI-specifying sequence. In addition, various linkers were tested for use between the DNA binding domain and the nuclease domain. Linkers L2 and L8 were used which are as follows: L2=GS (SEQ ID NO:71) and L8=[…] (SEQ ID NO:72). The target sites were cloned into a TOPO2.1 target vector (Invitrogen) with varying gap spacings between each target binding site such that the two were separated from each other by 2 to 22 bp. PCR amplification of an approximately 1 kb region of the target vector was done to generate the target DNAs. The TALE DNA binding domains were also truncated as described previously, and are described using the same nomenclature as described above in Examples 2 and 6. The TALE domain nuclease fusion clones were expressed in the TNT Rabbit Reticulocyte Lysate system by adding 5 μL of water containing 250 nanograms of the nuclease fusion clone plasmid to 20 μL of lysate and incubating at 30° C. for 90 minutes.
(§2) The lysate was then used to cleave the target DNAs as follows: 2.5 μL of lysate were added to a 50 μL reaction containing 50 nanograms of PCR-amplified target DNA and a final Buffer 2 (New England Biolabs) concentration of 1×. The cleavage reaction was for one hour at 37° C., followed by a 20 minute heat inactivation stage at 65° C. The reaction was then centrifuged at high speed to separate the target DNA from the lysate, causing the lysate to condense into a pellet in the reaction well. The DNA-containing supernatant was pipetted off and run on an ethidium bromide-stained agarose gel (Invitrogen) to separate intact target DNA from cleaved target DNA. The agarose gel was then analyzed using AlphaEaseFC (Alpha Innotech) software to measure the amount of target DNA present in the large uncleaved DNA band and the two smaller DNA bands resulting from a single cleavage event of the target DNA. The percentage of cleaved DNA out of the total amount of target DNA loaded into the gel represents the percent cleavage in each reaction.

Another data set addresses T2, TALE13 +79 FokI (Xanthomonas axonopodis (engineered)).
T2 chain: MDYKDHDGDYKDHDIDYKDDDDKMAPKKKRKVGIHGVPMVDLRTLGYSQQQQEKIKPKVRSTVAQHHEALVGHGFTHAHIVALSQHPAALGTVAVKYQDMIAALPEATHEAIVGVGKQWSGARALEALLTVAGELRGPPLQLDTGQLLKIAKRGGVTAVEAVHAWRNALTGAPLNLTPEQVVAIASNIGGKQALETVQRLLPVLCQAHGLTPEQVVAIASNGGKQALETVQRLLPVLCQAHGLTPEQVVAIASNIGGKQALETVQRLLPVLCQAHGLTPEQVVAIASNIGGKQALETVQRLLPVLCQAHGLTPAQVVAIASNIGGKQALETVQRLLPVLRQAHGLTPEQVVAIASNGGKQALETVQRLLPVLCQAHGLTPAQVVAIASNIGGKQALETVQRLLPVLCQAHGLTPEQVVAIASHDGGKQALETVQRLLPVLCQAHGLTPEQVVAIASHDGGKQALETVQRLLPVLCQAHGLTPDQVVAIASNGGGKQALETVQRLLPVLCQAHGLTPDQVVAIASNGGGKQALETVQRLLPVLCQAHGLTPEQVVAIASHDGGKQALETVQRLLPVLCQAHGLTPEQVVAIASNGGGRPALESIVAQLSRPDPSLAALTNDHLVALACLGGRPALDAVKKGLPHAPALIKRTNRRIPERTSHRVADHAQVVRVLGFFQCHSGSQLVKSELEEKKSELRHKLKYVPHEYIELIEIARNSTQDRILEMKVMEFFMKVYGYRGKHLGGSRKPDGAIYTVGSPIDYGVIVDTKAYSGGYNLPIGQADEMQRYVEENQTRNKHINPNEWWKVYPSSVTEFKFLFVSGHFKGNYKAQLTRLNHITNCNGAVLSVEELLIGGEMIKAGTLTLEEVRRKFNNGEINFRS
The description is as above. As to conditions: tags: FLAG, NLS, chain copies: 2. The method, then:
as §1, §2

B1: TALE13 target (dsDNA)
DNA 1: TATAAATACCTTCT
DNA 2: AGAAGGTATTTATA
For the molecule B1, the results for the activity in the data set with TALE13 +39 FokI and with TALE13 +79 FokI were 100 % cleavage and 56 % cleavage, respectively.
